# Test results from publication PMC13286378, “The SPN-4 Rbfox RNA-binding protein selects maternal mRNAs for CCR4-NOT-dependent clearance in early Caenorhabditis elegans embryos”.
# B1: lin-41(995-1054) (ssRNA)
# RNA: GUGCCCUAGCGCUAAAUAUUGUUUUAUUUUAAUGCAUGCUUCCUGCACGCCCCUCCCCCU
# Experiments:
# [1] = target: T1, SPN-4 RRM (3xFLAG::SPN-4 RRM::6xHis) (Caenorhabditis elegans, UniProt G5EF02 1-200); assay: EMSA; 10 mM Tris-HCl pH 7.5, 150 mM NaCl, 0.001% NP-40, 10% glycerol, 0.01 mg/ml tRNA, 0.025% Tween-20; 32 nM RNA, 50 nM-2.9 uM protein; 15 min, room temperature; 8%; conditions: protein: recombinant; tags: N-terminal 3xFLAG (MBP removed by TEV), C-terminal 6xHis; label: 5' Cy5
# T1 sequence: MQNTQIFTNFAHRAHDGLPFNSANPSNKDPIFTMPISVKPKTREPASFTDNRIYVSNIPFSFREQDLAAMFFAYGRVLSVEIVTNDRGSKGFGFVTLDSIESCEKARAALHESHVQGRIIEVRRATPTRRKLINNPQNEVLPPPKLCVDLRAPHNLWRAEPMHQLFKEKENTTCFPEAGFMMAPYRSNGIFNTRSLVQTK
# [2] = target: T1, SPN-4 RRM (3xFLAG::SPN-4 RRM::6xHis); assay: EMSA; did not bind specifically; 10 mM Tris-HCl pH 7.5, 150 mM NaCl, 0.001% NP-40, 10% glycerol, 0.01 mg/ml tRNA, 0.025% Tween-20; 32 nM RNA, 50 nM-2.9 uM protein; 15 min, room temperature; 8%; conditions: protein: recombinant; tags: N-terminal 3xFLAG (MBP removed by TEV), C-terminal 6xHis; label: 5' Cy5
Binder,Kd [1] [nM],binding result [2]
UUAAUGCAUGCUUCCUGCACGCCCC (ssRNA) [lin-41(1023-1047)],285 ± 29.4,
UUAAUACAAACUUCCUGCACGCCCC (ssRNA) [lin-41(1023-1047) motif 2],1640 ± 146,
B1,308 ± 17.9,
UUAAUGCAUGCUUCCUACAAACCCC (ssRNA) [lin-41(1023-1047) motif 1],230 ± 8.1,
AUUAGUAUUAUUAUUAUUGCAUGCUCUUACCUCAUCUCUC (ssRNA) [chs-1(40-79)],174 ± 13.5,
AUUAGUAUUAUUAUUAUUACAAACUCUUACCUCAUCUCUC (ssRNA) [chs-1(40-79) Rbfox mutant control],,no binding
